Results as given in patent publication US20190145976A1 (GOVERNING COUNCIL OF THE UNIVERSITY OF TORONTO, published 2019).

What was measured:
bovine serum albumin = molecular target: T1, bovine serum albumin (bovine, UniProt P02769 25-607); assay: Fab-phage ELISA on immobilised antigen, HRP-conjugated anti-phage antibody, absorbance at 450 nm
T1 construct: Negative control in the phage ELISA; also called BSA
Procedure: (§1) (B) Specificity determination of anti-αKlotho sb106 by Fab-phage ELISA: sb106 Fab-phage were incubated with the following immobilized antigens: a complex of FGFR1c/αKlotho complex (aKL-R1), FGFR1c alone (R1), human αKlotho (Hu aKL) and mouse αKlotho (Mu aKL), or neutravidin (NA) and bovine serum albumin (BSA) as negative controls. After washing off unbound phage, bound phages were detected using an HRP-conjugated anti-phage antibody. Colorimetric HRP reagents allow for absorbance readings at 450 nm. […] The binding signals to immobilized human αKlotho reported are an average of two data sets.
(§2) Binding selections, phage ELISAs and Fab protein purification were performed as described. Briefly, phage from library F were cycled through rounds of panning with the binary complex of αKlotho extracellular domain and FGFR1c ligand-binding domain on 96-well Maxisorp Immunoplates (Fisher Scientific, Nepean, ON, Canada) as the capture target. After 5 rounds of selection, phage were produced from individual clones grown in a 96-well format and phage ELISAs were performed to detect specific binding clones. […] A competitive binding ELISA was performed by pre-incubating sb106-phage with serial dilutions of soluble human αKlotho (50-0.0005 nM×1 hour) prior to binding to an ELISA plate coated with human αKlotho. […] Fab and IgG proteins were affinity-purified on Protein A affinity columns (GE Healthcare, Mississauga, ON, Canada).

neutravidin = molecular target: T2, neutravidin (UniProt P02701 25-152); assay: as above
T2 construct: Negative control in the phage ELISA; also called NA; NAV
T2 sequence (P02701 25-152): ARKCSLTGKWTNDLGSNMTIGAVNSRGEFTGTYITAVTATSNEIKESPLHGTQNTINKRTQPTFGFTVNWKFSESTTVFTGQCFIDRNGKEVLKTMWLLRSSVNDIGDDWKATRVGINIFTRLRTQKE
Procedure: as §1, §2

[1] = molecular target: T3, ligand-binding domain of human FGFR1c (D142 to R365) (human, UniProt P11362 142-365); assay: as above
T3 construct: range 142-365; also called FGFR1c alone
T3 sequence (looked up): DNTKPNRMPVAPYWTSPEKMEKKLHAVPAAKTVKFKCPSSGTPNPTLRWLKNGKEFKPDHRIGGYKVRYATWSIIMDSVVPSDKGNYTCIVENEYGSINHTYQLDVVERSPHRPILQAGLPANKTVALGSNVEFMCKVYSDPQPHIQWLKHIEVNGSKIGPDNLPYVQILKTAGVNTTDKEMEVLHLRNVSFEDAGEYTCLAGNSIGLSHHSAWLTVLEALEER
Procedure: as §1, §2

[2] = molecular target: T4, recombinant soluble human αKlotho (human, UniProt Q9UEF7 34-981); assay: competitive Fab-phage ELISA: sb106-phage pre-incubated with soluble human αKlotho (50-0.0005 nM), then bound to plate-coated human αKlotho; competitive Fab-phage ELISA; soluble human αKlotho as competitor
T4 construct: extracellular domain; Bought (R&D Systems); also called Hu aKL; soluble human αKlotho ectodomain
T4 sequence (looked up): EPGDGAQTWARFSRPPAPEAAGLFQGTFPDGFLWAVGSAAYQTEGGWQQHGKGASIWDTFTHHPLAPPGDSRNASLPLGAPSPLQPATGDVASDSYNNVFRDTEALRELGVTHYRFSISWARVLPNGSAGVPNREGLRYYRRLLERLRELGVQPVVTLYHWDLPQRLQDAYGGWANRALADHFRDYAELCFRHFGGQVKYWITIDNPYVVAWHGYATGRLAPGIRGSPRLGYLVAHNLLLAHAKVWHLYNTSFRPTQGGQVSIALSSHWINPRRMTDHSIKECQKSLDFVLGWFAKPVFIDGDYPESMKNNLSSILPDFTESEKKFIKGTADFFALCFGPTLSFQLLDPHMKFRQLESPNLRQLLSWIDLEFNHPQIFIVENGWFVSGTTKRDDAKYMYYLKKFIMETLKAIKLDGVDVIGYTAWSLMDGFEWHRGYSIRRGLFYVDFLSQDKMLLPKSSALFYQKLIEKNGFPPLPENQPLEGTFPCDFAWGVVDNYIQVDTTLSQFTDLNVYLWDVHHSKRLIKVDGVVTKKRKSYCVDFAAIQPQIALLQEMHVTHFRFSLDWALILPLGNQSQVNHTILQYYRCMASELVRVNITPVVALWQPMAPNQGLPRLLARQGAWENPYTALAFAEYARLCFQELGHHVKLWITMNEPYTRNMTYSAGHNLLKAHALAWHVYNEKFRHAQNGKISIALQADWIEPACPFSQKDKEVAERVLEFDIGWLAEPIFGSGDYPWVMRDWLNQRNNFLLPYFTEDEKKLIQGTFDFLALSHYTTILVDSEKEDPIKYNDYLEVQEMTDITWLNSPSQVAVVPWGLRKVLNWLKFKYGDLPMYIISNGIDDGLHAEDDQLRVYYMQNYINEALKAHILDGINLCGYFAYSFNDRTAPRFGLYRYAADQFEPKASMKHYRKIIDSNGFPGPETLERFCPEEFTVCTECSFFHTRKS
Procedure: as §1
(§3) Binding selections, phage ELISAs and Fab protein purification were performed as described. Briefly, phage from library F were cycled through rounds of panning with the binary complex of αKlotho extracellular domain and FGFR1c ligand-binding domain on 96-well Maxisorp Immunoplates (Fisher Scientific, Nepean, ON, Canada) as the capture target. After 5 rounds of selection, phage were produced from individual clones grown in a 96-well format and phage ELISAs were performed to detect specific binding clones. […] A competitive binding ELISA was performed by pre-incubating sb106-phage with serial dilutions of soluble human αKlotho (50-0.0005 nM×1 hour) prior to binding to an ELISA plate coated with human αKlotho. […]

[3] = molecular target: T4, recombinant soluble human αKlotho; assay: competitive Fab-phage ELISA with soluble human αKlotho as competitor (FIG. 1C)
Procedure: as §1, §3

[4] = molecular target: T5, native rat αKlotho in tissue and NRK cells (rat, UniProt Q9Z2Y9 35-1014); assay: immunohistochemistry on freshly frozen unfixed rat parathyroid sections; freshly frozen unfixed rat parathyroid tissue (native fold)
T5 construct: also called αKlotho of rat parathyroid tissue; native αKlotho of NRK cells
T5 sequence (looked up): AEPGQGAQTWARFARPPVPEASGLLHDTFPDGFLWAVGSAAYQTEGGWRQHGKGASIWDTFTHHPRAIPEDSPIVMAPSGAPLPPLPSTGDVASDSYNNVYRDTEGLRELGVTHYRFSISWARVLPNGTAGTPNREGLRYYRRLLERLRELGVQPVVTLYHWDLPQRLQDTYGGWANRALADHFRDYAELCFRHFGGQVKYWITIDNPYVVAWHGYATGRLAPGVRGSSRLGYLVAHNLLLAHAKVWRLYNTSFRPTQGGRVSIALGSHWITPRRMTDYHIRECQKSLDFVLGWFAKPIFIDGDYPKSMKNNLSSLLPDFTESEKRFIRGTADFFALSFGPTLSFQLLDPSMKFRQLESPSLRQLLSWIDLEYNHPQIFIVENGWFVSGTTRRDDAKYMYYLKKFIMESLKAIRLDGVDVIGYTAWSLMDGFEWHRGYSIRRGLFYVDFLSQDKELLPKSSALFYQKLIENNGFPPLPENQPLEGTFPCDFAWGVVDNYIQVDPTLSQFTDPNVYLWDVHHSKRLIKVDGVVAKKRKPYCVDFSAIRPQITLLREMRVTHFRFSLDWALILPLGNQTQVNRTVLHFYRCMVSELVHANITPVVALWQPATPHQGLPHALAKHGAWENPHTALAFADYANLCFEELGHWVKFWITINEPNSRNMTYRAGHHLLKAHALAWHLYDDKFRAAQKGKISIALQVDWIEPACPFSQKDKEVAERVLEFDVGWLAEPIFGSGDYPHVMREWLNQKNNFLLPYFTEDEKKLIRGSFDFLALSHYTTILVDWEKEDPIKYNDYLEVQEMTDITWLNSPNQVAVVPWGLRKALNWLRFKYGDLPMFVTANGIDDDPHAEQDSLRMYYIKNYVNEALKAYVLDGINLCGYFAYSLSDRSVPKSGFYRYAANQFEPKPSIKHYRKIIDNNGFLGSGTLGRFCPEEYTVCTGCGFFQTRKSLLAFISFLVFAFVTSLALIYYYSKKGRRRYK
Procedure: For labeling, sections were blocked (PBS, 1.5% BSA, 10% goat serum; 40 min) and incubated with the primary antibody sb106 ([…] in blocking solution; 4° C. overnight). After washing (PBS), sections were incubated with the Alexa 546 goat anti-human IgG (1:800 dilution, Invitrogen) for 1 hour at room temperature. After additional washes with PBS, the sections were fixed with 4% paraformaldehyde in PBS, washed with PBS, and mounted and visualized with a Zeiss LSM510 microscope.
Sb106 was highly reactive against αKlotho under native conditions. Immunoblot signals under denaturing conditions against mouse, rat, and human kidney tissue were weak, but in samples from transgenic mice overexpressing αKlotho[79], sb106-Fab detected a band corresponding to the full-length extracellular domain of αKlotho (FIG. 2A). In cultured cells, sb106-Fab was not able to detect αKlotho in immunoblots under denaturing conditions with lysates from NRK cells expressing native αKlotho but it was able to detect overexpressed antigen in cell lysates from HEK293 cells transfected with αKlotho (FIG. 2B). […] Cells were then incubated with sb106-Fab ([…] in 1% BSA in PBS) for 1 hr. Cells were washed 5 times with cold PBS (2 min each) and then incubated with anti-FLAG-Alexa488 (the C-terminus of the Fab light chain contains a Flag epitope tag) (1:400 in 1% BSA in PBS) for 1 hr, while being protected from light. […]

T1 sequence (P02769 25-607 limits assumed): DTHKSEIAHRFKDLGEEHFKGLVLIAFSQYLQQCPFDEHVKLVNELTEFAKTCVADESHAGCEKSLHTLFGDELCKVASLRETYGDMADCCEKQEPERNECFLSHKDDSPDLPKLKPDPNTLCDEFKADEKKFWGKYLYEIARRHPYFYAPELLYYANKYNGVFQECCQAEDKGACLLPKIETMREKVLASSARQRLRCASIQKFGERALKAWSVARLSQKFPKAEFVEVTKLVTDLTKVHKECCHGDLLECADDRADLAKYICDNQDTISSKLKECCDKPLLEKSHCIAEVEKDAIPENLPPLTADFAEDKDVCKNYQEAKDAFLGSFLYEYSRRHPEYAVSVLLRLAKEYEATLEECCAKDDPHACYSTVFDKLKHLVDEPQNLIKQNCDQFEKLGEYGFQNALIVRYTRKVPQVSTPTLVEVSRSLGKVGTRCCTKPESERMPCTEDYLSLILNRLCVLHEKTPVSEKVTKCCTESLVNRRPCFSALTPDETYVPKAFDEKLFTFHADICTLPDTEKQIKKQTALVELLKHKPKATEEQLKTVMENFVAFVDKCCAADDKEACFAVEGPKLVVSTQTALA

Row | Binder | binding result (bovine serum albumin) | binding result (neutravidin) | binding result [1] | IC50 [2] [nM] | Kd [3] [nM] | binding result [4]
1 | sb106 Fab-phage (Fab, V domains shown, also called sb106-phage; Sb106-phage) VH: EVQLVESGGGLVQPGGSLRLSCAASGFNISYYSIHWVRQAPGKGLEWVAYISPSYGYTSYADSVKGRFTISADTSKNTAYLQMNSLRAEDTAVYYCARYYVYASHGWAGYGMDYWGQGTLVTVSS VL: DIQMTQSPSSLSASVGDRVTITCRASQSVSSAVAWYQQKPGKAPKLLIYSASSLYSGVPSRFSGSRSGTDFTLTISSLQPEDFATYYCQQAGYSPITFGQGTKVEIKR | no binding | no binding | no binding | 1.7 | 1 to 2 | –
2 | sb106-IgG (antibody, V domains shown) VH: EVQLVESGGGLVQPGGSLRLSCAASGFNISYYSIHWVRQAPGKGLEWVAYISPSYGYTSYADSVKGRFTISADTSKNTAYLQMNSLRAEDTAVYYCARYYVYASHGWAGYGMDYWGQGTLVTVSS VL: DIQMTQSPSSLSASVGDRVTITCRASQSVSSAVAWYQQKPGKAPKLLIYSASSLYSGVPSRFSGSRSGTDFTLTISSLQPEDFATYYCQQAGYSPITFGQGTKVEIKR | – | – | – | – | – | binds
